Results as given in publication PMC3893156.

What was measured:
[1] = substrate: O=P(O)(O)O[C@H]1O[C@H](CO)[C@@H](O)[C@H](O)[C@@H]1O; experiment: Michaelis-Menten kinetics of purified enzyme; assay type: biochemical, Homo sapiens; conditions: Mg2+; Man-1,6-P2 activator
[2] = substrate: O=P(O)(O)O[C@H]1O[C@H](CO)[C@@H](O)[C@H](O)[C@H]1O; experiment: Michaelis-Menten kinetics of purified enzyme; assay type: biochemical, Homo sapiens; conditions: Mg2+; Glc-1,6-P2 activator

Row | Protein | Km [1] | Km [2]
1 | Phosphomannomutase 2 (wt-PMM2) (Homo sapiens) (protein) MAAPGPALCLFDVDGTLTAPRQKITKEMDDFLQKLRQKIKIGVVGGSDFEKVQEQLGNDVVEKYDYVFPENGLVAYKDGKLLCRQNIQSHLGEALIQDLINYCLSYIAKIKLPKKRGTFIEFRNGMLNVSPIGRSCSQEERIEFYELDKKENIRQKFVADLRKEFAGKGLTFSIGGQISFDVFPDGWDKRYCLRHVENDGYKTIYFFGDKTMPGGNDHEIFTDPRTMGYSVTAPEDTRRICELLFS | 16.0 ± 1.5 µM | 8.2 ± 1.4 µM
2 | Phosphomannomutase 2 (F119L-PMM2) (Homo sapiens; F119L) (protein) MAAPGPALCLFDVDGTLTAPRQKITKEMDDFLQKLRQKIKIGVVGGSDFEKVQEQLGNDVVEKYDYVFPENGLVAYKDGKLLCRQNIQSHLGEALIQDLINYCLSYIAKIKLPKKRGTLIEFRNGMLNVSPIGRSCSQEERIEFYELDKKENIRQKFVADLRKEFAGKGLTFSIGGQISFDVFPDGWDKRYCLRHVENDGYKTIYFFGDKTMPGGNDHEIFTDPRTMGYSVTAPEDTRRICELLFS | 11.8 ± 1.0 µM | 15.5 ± 1.6 µM
